According to paper PMC6505963:

Target: GST-BLM RQC loopΔ10 (human) (UniProt P54132)
Test: EMSA
Settings: 5 uM protein, FP: 10 mM Tris-HCl pH 7.5, 25 mM NaCl, 1 mM DTT, 100 pM DNA, 25 C, EMSA: 10 mM Tris-HCl pH 8.0, 2 mM DTT, 1 mM EDTA, 20% glycerol, 0.2 uM DNA, 4 C, 30 min

Chain of GST-BLM RQC loopΔ10 (human) (P54132 1068-1209, stated change not applied): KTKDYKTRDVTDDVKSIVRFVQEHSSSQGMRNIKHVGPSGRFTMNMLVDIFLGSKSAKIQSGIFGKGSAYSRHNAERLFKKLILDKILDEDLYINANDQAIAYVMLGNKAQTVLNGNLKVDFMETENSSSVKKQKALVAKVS

**Q.** How did the binding signal (% loss of binding vs wild type) turn out when “CTAGAACAGCATGTCCTAGCAAGCCAGAATTC / GAATTCTGGCTTGCTAGGACATCTTTGCCCAC / GTGGGCAAAGATGTCCTAGCAATGTAATCGTC / GACGATTACATTGCTAGGACATGCTGTTCTAG [Holliday junction (HJ)]” was run?
**A.** 50
